Common to all, as to assay: competitive phage ELISA
In general terms: ELISA stands for enzyme-linked immunosorbent assay.

For test [1], the target named is IGF-I V70A (G1S-A70V background) displayed on phage (human; bacteriophage M13, UniProt P69168 267-424). Here is the method:
(§1) Phage particles were harvested and resuspended in PBS buffer as described in Lowman, H. B., “Phage Display of Peptide Libraries on Protein Scaffolds,” in Cabilly, S. (ed.), Combinatorial Peptide Library Protocols (Humana Press Inc.: Totowa, N.J., 1998), pp. 249-264. Then phage concentrations were normalized to yield a maximal ELISA signal of 0.2-0.4 for each mutant (Lowman, in Cabilly, S. (ed.), supra). Threefold serial dilutions of soluble competitor were prepared on non-absorbent microtiter plates (Nunc, F, 96 wells) with binding buffer (0.5% TWEEN™ 20/PBS) containing phage at the previously-determined concentrations. […] After blocking, the plates containing immobilized target were washed with 0.05% TWEEN™/PBS buffer and subsequently incubated with 80 μl/well of the premixed phage-competitor solutions for 1 hour at room temperature. After washing, bound phage was detected with 80 μl/well of a solution containing a primary rabbit anti-phage polyclonal antibody and a secondary goat anti-rabbit monoclonal antibody-horseradish peroxidase conjugate in 0.5% TWEEN 20™/PBS. o-Phenylenediamine (Sigma) and tetramethylbenzidine (Kirkegaard and Perry) were used as chromogenic substrates, resulting in product detection at 492 and 450 nm, respectively. IC₅₀ values were determined by fitting the binding data to a generic saturation curve (Lowman, in Cabilly, S. (ed.), supra). […] Numbers in Table I represent mean +standard deviation of individually assessed IC₅₀ values.
(§2) At least two different clones of every mutant were tested.

For test [2], the target named is T1, IGF-I E3A (G1S-A70V background) displayed on phage (human; bacteriophage M13, UniProt P69168 267-424).
T1 chain: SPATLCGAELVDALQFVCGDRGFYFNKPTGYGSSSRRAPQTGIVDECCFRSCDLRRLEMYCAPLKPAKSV
The procedure: as §1, §2

For test [3], the target named is T2, Ala(1-3)-IGF-I displayed on phage (human; bacteriophage M13, UniProt P69168 267-424).
T2 chain: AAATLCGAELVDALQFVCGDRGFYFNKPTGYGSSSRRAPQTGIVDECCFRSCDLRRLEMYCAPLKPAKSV
The procedure:
as §1, §2

The target of test [4] is T3, IGF-I G19A (G1S-A70V background) displayed on phage (human; bacteriophage M13).
T3 construct: monovalent M13 phage display
T3 chain: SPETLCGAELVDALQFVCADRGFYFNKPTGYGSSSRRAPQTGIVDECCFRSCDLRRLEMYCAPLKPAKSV
The procedure: as §1, §2

In test [5] the target is T4, IGF-I D20A (G1S-A70V background) displayed on phage (human; bacteriophage M13, not fully specified; Displayed monovalently on M13 phage as a C-terminal fusion to the gene III fragment, which is left out of the letters.).
T4 construct: monovalent M13 phage display; not shown: Display carrier: M13 gene III fragment (residues 249-406) and its junction
T4 chain: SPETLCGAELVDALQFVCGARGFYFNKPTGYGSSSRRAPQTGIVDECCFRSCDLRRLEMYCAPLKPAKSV
Here is the method:
as §1, §2

The target of test [6] is T5, IGF-I Y31A (G1S-A70V background) displayed on phage (human; bacteriophage M13).
T5 construct: monovalent M13 phage display; not shown: M13 gene III fragment (residues 249-406, display partner) and the junction to it
T5 chain: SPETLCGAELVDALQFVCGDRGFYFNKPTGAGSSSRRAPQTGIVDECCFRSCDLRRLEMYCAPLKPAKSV
The procedure:
as §1, §2

For test [7], the target named is T6, IGF-I S33A (G1S-A70V background) displayed on phage (human; bacteriophage M13).
T6 construct: monovalent M13 phage display; not shown: M13 gene III fragment (residues 249-406, display partner) and the junction to it
T6 chain: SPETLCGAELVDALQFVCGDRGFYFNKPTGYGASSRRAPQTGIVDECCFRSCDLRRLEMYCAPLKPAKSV
Here is the method: as §1, §2

Test [8] concerns the target T7, IGF-I S35A (G1S-A70V background) displayed on phage (human; bacteriophage M13).
T7 construct: monovalent M13 phage display
T7 chain: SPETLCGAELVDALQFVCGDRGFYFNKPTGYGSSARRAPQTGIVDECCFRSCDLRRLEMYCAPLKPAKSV
Here is the method: as §1, §2

Test [9] has as its target T8, IGF-I T41A (G1S-A70V background) displayed on phage (human; bacteriophage M13).
T8 construct: monovalent M13 phage display
T8 chain: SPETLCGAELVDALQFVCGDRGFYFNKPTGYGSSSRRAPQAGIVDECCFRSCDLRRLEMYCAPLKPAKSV
The procedure:
as §1, §2

The target in test [10] is T9, IGF-I G42A (G1S-A70V background) displayed on phage (human; bacteriophage M13).
T9 construct: monovalent M13 phage display
T9 chain: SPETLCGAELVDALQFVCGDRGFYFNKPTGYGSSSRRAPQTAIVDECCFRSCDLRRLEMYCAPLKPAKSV
Here is the method:
as §1, §2

In test [11] the target is T10, IGF-I R50A (G1S-A70V background) displayed on phage (human; bacteriophage M13).
T10 construct: monovalent M13 phage display
T10 chain: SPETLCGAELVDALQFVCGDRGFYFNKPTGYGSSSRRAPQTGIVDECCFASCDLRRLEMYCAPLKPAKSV
The procedure:
as §1, §2

Test [12] has as its target T11, IGF-I R55A (G1S-A70V background) displayed on phage (human; bacteriophage M13).
T11 construct: monovalent M13 phage display
T11 chain: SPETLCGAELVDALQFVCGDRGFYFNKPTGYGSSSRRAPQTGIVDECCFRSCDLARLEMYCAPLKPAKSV
Here is the method: as §1, §2

Test [13] has as its target T12, IGF-I L57A (G1S-A70V background) displayed on phage (human; bacteriophage M13).
T12 construct: monovalent M13 phage display; not shown: M13 gene III protein fragment (residues 249-406), the phage display carrier, and its junction to IGF-I
T12 chain: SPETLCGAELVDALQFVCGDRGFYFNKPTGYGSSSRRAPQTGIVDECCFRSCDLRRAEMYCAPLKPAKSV
The procedure:
as §1, §2

Test [14] deals with T13, IGF-I E58A (G1S-A70V background) displayed on phage (human; bacteriophage M13).
T13 construct: monovalent M13 phage display; not shown: M13 gene III protein fragment (residues 249-406), the phage display carrier, and its junction to IGF-I
T13 chain: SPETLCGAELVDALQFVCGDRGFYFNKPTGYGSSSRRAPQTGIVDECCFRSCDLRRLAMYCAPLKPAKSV
The procedure:
as §1, §2

For test [15], the target named is T14, IGF-I P66A (G1S-A70V background) displayed on phage (human; bacteriophage M13).
T14 construct: monovalent M13 phage display; not shown: M13 gene III protein fragment (residues 249-406), the phage display carrier, and its junction to IGF-I
Here is the method: as §1, §2

These results are taken from patent publication US20020160955A1 (published 2002).

B1: human IGFBP-1 (other, UniProt P08833 26-259, looked up)
chain: APWQCAPCSAEKLALCPPVSASCSEVTRSAGCGCCPMCALPLGAACGVATARCARGLSCRALPGEQQPLHALTRGQGACVQESDASAPHAAEAGSPESPESTEITEEELLDNFHLMAPSEEDHSILWDAISTYDGSKALHVTNIKKWKEPCRIELYRVVESLAKAQETSGEEISKFYLPNCNKNGFYHSRQCETSMDGEAGLCWCVYPWNGKRIPGSPEIRGDPNCQIYFNVQN
notes: secreted recombinant protein purified from conditioned medium
As a reminder, the IC50 is the point on the concentration scale where inhibition reaches its midpoint. Higher therefore signals a need for much substance. For B1, the IC50 in test [1] was 19.1 nM; in test [2], 278 nM; in test [3] it was 90.4 nM; in test [4], 11 nM; in test [5], 8.4 nM; in [6], 6.8 nM. Also, the IC50 amounted to 9.1 nM in [7]; 11.7 nM in test [8]; 13.7 nM in test [9]; 15.7 nM in test [10]; 16.2 nM in test [11]; 9 nM in test [12]. Further, the half-inhibitory concentration (IC50) in [13] was 21.8 nM; in test [14], 11.9 nM; in [15] it was 9.4 nM.
